The values that follow come from patent US20210388087A1 (Chugai, published 2021).

First the molecules themselves.
B1: H183/L072 VL N30S (antibody, name in Kabat numbering, V domains shown)
VH: QVQLVESGGGLVQPGRSLRLSCAASGFTFSNAWMHWVRQAPGKGLEWVAQIKDKGNAYAAYYAPSVKGRFTISRDDSKNSIYLQMNSLKTEDTAVYYCHYVHYASASTVLPAFGVDAWGQGTTVTVSS
VL: DIVMTQSPLSLPVTPGEPASISCQASQELVHMNRSTYLHWYQQKPGQAPRLLIYKVSNRFPGVPDRFSGSGSGTDFTLKISRVEAEDVGVYYCAQGTSVPFTFGQGTKLEIK
B2: H183/L072 VL N53W (antibody, name in Kabat numbering, V domains shown)
VH: B1 VH
VL: B1 VL with S35N, N58W
B3: H183/L072 VL P56K (antibody, name in Kabat numbering, V domains shown)
VH: B1 VH
VL: B1 VL with S35N, P61K
B4: H183/L072 VL N30W (antibody, name in Kabat numbering, V domains shown)
VH: B1 VH
VL: B1 VL with S35W
B5: H183/L072 VL N53T (antibody, name in Kabat numbering, V domains shown)
VH: B1 VH
VL: B1 VL with S35N, N58T
B6: H183/L072 VL P95D (antibody, name in Kabat numbering, V domains shown)
VH: B1 VH
VL: B1 VL with S35N, P100D
B7: H183/L072 VL N53M (antibody, name in Kabat numbering, V domains shown)
VH: B1 VH
VL: B1 VL with S35N, N58M
B8: H183/L072 VL N30Y (antibody, name in Kabat numbering, V domains shown)
VH: B1 VH
VL: B1 VL with S35Y
B9: H183/L072 VL P56D (antibody, name in Kabat numbering, V domains shown)
VH: B1 VH
VL: B1 VL with S35N, P61D
B10: H183/L072 VL N53G (antibody, name in Kabat numbering, V domains shown)
VH: B1 VH
VL: B1 VL with S35N, N58G
B11: H183/L072 VL P56R (antibody, name in Kabat numbering, V domains shown)
VH: B1 VH
VL: B1 VL with S35N, P61R
B12: H183/L072 VL P56Q (antibody, name in Kabat numbering, V domains shown)
VH: B1 VH
VL: B1 VL with S35N, P61Q
B13: H183/L072 VL N30T (antibody, name in Kabat numbering, V domains shown)
VH: B1 VH
VL: B1 VL with S35T
B14: H183/L072 VL P56G (antibody, name in Kabat numbering, V domains shown)
VH: B1 VH
VL: B1 VL with S35N, P61G
B15: H183/L072 VL N30V (antibody, name in Kabat numbering, V domains shown)
VH: B1 VH
VL: B1 VL with S35V
B16: H183/L072 VL N53E (antibody, name in Kabat numbering, V domains shown)
VH: B1 VH
VL: B1 VL with S35N, N58E
B17: H183/L072 VL P56T (antibody, name in Kabat numbering, V domains shown)
VH: B1 VH
VL: B1 VL with S35N, P61T
B18: H183/L072 VL N53P (antibody, name in Kabat numbering, V domains shown)
VH: B1 VH
VL: B1 VL with S35N, N58P
B19: H183/L072 VL N53S (antibody, name in Kabat numbering, V domains shown)
VH: B1 VH
VL: B1 VL with S35N, N58S
B20: H183/L072 VL P56V (antibody, name in Kabat numbering, V domains shown)
VH: B1 VH
VL: B1 VL with S35N, P61V
B21: H183/L072 VL P95E (antibody, name in Kabat numbering, V domains shown)
VH: B1 VH
VL: B1 VL with S35N, P100E
B22: H183/L072 VL N53V (antibody, name in Kabat numbering, V domains shown)
VH: B1 VH
VL: B1 VL with S35N, N58V
B23: H183/L072 VL N53Q (antibody, name in Kabat numbering, V domains shown)
VH: B1 VH
VL: B1 VL with S35N, N58Q
B24: H183/L072 VL P95K (antibody, name in Kabat numbering, V domains shown)
VH: B1 VH
VL: B1 VL with S35N, P100K
B25: H183/L072 VL N53L (antibody, name in Kabat numbering, V domains shown)
VH: B1 VH
VL: B1 VL with S35N, N58L
B26: H183/L072 VL N53A (antibody, name in Kabat numbering, V domains shown)
VH: B1 VH
VL: B1 VL with S35N, N58A
B27: H183/L072 VL P56S (antibody, name in Kabat numbering, V domains shown)
VH: B1 VH
VL: B1 VL with S35N, P61S
B28: H183/L072 VL P56F (antibody, name in Kabat numbering, V domains shown)
VH: B1 VH
VL: B1 VL with S35N, P61F
B29: H183/L072 VL P56M (antibody, name in Kabat numbering, V domains shown)
VH: B1 VH
VL: B1 VL with S35N, P61M
B30: H183/L072 VL P56A (antibody, name in Kabat numbering, V domains shown)
VH: B1 VH
VL: B1 VL with S35N, P61A
B31: H183/L072 VL N53H (antibody, name in Kabat numbering, V domains shown)
VH: B1 VH
VL: B1 VL with S35N, N58H
B32: H183/L072 VL P56I (antibody, name in Kabat numbering, V domains shown)
VH: B1 VH
VL: B1 VL with S35N, P61I
B33: H183/L072 VL N53R (antibody, name in Kabat numbering, V domains shown)
VH: B1 VH
VL: B1 VL with S35N, N58R
B34: H183/L072 VL P56H (antibody, name in Kabat numbering, V domains shown)
VH: B1 VH
VL: B1 VL with S35N, P61H
B35: H183/L072 VL P56W (antibody, name in Kabat numbering, V domains shown)
VH: B1 VH
VL: B1 VL with S35N, P61W
B36: H183/L072 VL P56N (antibody, name in Kabat numbering, V domains shown)
VH: B1 VH
VL: B1 VL with S35N, P61N
B37: H183/L072 VL N53F (antibody, name in Kabat numbering, V domains shown)
VH: B1 VH
VL: B1 VL with S35N, N58F
B38: H183/L072 VL P56L (antibody, name in Kabat numbering, V domains shown)
VH: B1 VH
VL: B1 VL with S35N, P61L
B39: H183/L072 VL N53D (antibody, name in Kabat numbering, V domains shown)
VH: B1 VH
VL: B1 VL with S35N, N58D
B40: H183/L072 VL N53K (antibody, name in Kabat numbering, V domains shown)
VH: B1 VH
VL: B1 VL with S35N, N58K
B41: H183/L072 VL P56E (antibody, name in Kabat numbering, V domains shown)
VH: B1 VH
VL: B1 VL with S35N, P61E
B42: H183/L072 VL P95H (antibody, name in Kabat numbering, V domains shown)
VH: B1 VH
VL: B1 VL with S35N, P100H

Substitutions are numbered along the chain they refer to. Names and notes keep the numbering of the source.

In this assay the target is T1, Human CD3eg linker (human).
T1 construct: Single-chain construct; also called recombinant human CD3
T1 chain: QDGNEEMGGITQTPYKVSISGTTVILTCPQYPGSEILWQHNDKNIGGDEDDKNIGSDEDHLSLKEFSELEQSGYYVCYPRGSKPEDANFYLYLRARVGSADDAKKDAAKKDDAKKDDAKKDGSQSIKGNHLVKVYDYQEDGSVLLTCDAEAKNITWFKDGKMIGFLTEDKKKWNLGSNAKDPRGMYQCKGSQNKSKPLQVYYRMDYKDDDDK
In words: SPR; fold vs parent H183/L072. For orientation: SPR reads the build-up and loss of mass on a sensor chip optically.
With B1, the “fold change of affinity” value came out at 0 fold.

For the molecule B2, the “fold change of affinity” value worked out at 0.7 fold.

For the molecule B3, the “fold change of affinity” value worked out at 5.6 fold.

On to B4, for which the “fold change of affinity” value turned out to be 0.9 fold.

Take B5: the “fold change of affinity” value turned out to be 0.4 fold.

With B6, the “fold change of affinity” value worked out at 0 fold.

Take B7: the “fold change of affinity” value turned out to be 0.9 fold.

B8: the “fold change of affinity” value stood at 0.8 fold.

In the case of B9, the “fold change of affinity” value worked out at 3 fold.

Regarding B10, the “fold change of affinity” value worked out at 0.6 fold.

Regarding B11, the “fold change of affinity” value was determined as 5.5 fold.

With B12, the “fold change of affinity” value was determined as 3.7 fold.

As to B13, the “fold change of affinity” value is 0.1 fold.

Turning to B14, the “fold change of affinity” value worked out at 3.7 fold.

As for B15, the “fold change of affinity” value was 0.5 fold.

For B16, the “fold change of affinity” value worked out at 0.5 fold.

For the molecule B17, the “fold change of affinity” value was found to be 3.9 fold.

For the molecule B18, the “fold change of affinity” value came out at 0.6 fold.

B19: the “fold change of affinity” value amounted to 0.9 fold.

As to B20, the “fold change of affinity” value stood at 3.4 fold.

On to B21, for which the “fold change of affinity” value worked out at 0 fold.

With B22, the “fold change of affinity” value came out at 0.3 fold.

Consider B23, for which the “fold change of affinity” value was determined as 0.8 fold.

As for B24, the “fold change of affinity” value amounted to 0 fold.

B25: the “fold change of affinity” value was 0.6 fold.

For B26, the “fold change of affinity” value is 0.6 fold.

Consider B27, for which the “fold change of affinity” value amounted to 4.1 fold.

Turning to B28, the “fold change of affinity” value amounted to 3.3 fold.

Regarding B29, the “fold change of affinity” value came to 3.9 fold.

As for B30, the “fold change of affinity” value was 4.1 fold.

As for B31, the “fold change of affinity” value stood at 1.2 fold.

With B32, the “fold change of affinity” value came out at 3.1 fold.

As for B33, the “fold change of affinity” value turned out to be 1.8 fold.

Regarding B34, the “fold change of affinity” value is 2.9 fold.

Regarding B35, the “fold change of affinity” value stood at 3 fold.

Regarding B36, the “fold change of affinity” value came to 3.3 fold.

B37: the “fold change of affinity” value turned out to be 0.7 fold.

In the case of B38, the “fold change of affinity” value is 3.1 fold.

On to B39, for which the “fold change of affinity” value amounted to 0.2 fold.

Turning to B40, the “fold change of affinity” value worked out at 1.4 fold.

Take B41: the “fold change of affinity” value was 3.4 fold.

On to B42, for which the “fold change of affinity” value amounted to 0 fold.
